Test results published in the supplement of paper PMC10724198.
± gives the standard deviation of the averaged measurements.

What follows are sequences tested on Saccharomyces cerevisiae (assay: protein stability index of tFT-peptide fusion (C-terminal peptide) (PSI (0-1 scale)); higher = more stable (slower turnover)). Conditions: genetic background: das1 deletion; temperature: 37 C.
Procedure: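 MPS profiling in S. cerevisiae of the tFT-X12 degron library: putative degron peptides plus stable controls, 12 aa, fused to the C-terminus of a sfGFP-mCherry timer. Cells are FACS-sorted into 8 mCherry/sfGFP bins and deep-sequenced. PSI runs from 0 (unstable) to 1 (stable). Backgrounds are wild type, das1Δ and doa10Δ at 30 °C, and wild type, das1Δ, cdc34-1 and cdc53-1 at 37 °C; 2-3 technical replicates each.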
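Further: PSI is a weighted mean of sequencing reads over stability bins, variants kept only with over 10 reads, mCherry proximal and sfGFP distal, peptide attached via GGGS linker.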

Point of comparison: FFLSFICVMLCG, protein stability index 0.303 ± 0.0073. Against it:
- CTLVFLFFDLCS — higher, 0.497 ± 0.03
- CVCVVVCWRCGF — higher, 0.509 ± 0.021
- CVIVCVLVWGRA — higher, 0.329 ± 0.0095
- CVMWFLLSAYYL — higher, 0.4336 ± 0.002
- CVPAPCGRASCR — higher, 0.743 ± 0.0076
- CYSLLFVSVILF — lower, 0.271 ± 0.023
- CYVFLCGSFVFV — higher, 0.551 ± 0.014
- DFLSGRCIFFYV — higher, 0.762 ± 0.016
- DFRGVSVIRHQV — higher, 0.7366 ± 0.0065
- DRTRLFLLLIIA — higher, 0.4013 ± 0.0035
- DTHSRARAVLIA — higher, 0.704 ± 0.01
- DYARAWRTEVVC — higher, 0.525 ± 0.016
- EFEIALTLIRSI — higher, 0.726 ± 0.011
- EFFILYFFLKVL — higher, 0.393 ± 0.0076
- EFVACFRLLVHG — higher, 0.441 ± 0.012
- EGLCCGAYFLVF — higher, 0.709 ± 0.0098
- EGLDVRILIQVI — lower, 0.197 ± 0.0041
- EKTKRGLIQRVV — higher, 0.693 ± 0.015
- ESRRGILFIYIN — higher, 0.647 ± 0.038
- ETCFSFVCSVQC — higher, 0.4019 ± 0.0023
- EVFLARKRSMVV — higher, 0.67627 ± 0.00012
- EWVWVVFSCVSW — higher, 0.435 ± 0.012
- FAIRMHCLIFRC — within error, 0.343 ± 0.036
- FCSVFAHFLLCH — higher, 0.49 ± 0.0094
- FFCCVLFSIVVY — lower, 0.167 ± 0.002
- FFFSFSFPFLSF — higher, 0.559 ± 0.0068
- FFFSLFFVLFFA — within error, 0.348 ± 0.061
- FFGRWWWSFLLA — higher, 0.663 ± 0.012
- FFLDVMFLLFFF — higher, 0.524 ± 0.008
- FFLLFCASFLRC — higher, 0.433 ± 0.053
- FFSGSVFMAVSL — higher, 0.399 ± 0.017
- FFVWGVFLGVSW — higher, 0.406 ± 0.005
- FGEDFCHLLWCC — higher, 0.725 ± 0.011
- FGFSFLHLFIFF — higher, 0.519 ± 0.03
- FGGICFAVLLCR — higher, 0.3926 ± 0.0036
- FHICTQLIFITC — lower, 0.198 ± 0.0078
- FILCGFSVVLIG — higher, 0.395 ± 0.016
- FILLIFLSLLSP — higher, 0.454 ± 0.01
- FIPPRTYCLMIG — higher, 0.693 ± 0.011
- FIRLFLVSFFIS — higher, 0.567 ± 0.032
- FLACYSSFLFVS — higher, 0.587 ± 0.0092
- FLCFFGGCFFLV — higher, 0.6462 ± 0.0016
- FLCLLFYLSFFS — higher, 0.572 ± 0.0078
- FLFWVLLVGCSF — higher, 0.3748 ± 0.0029
- FLGVFFYFLLCV — higher, 0.35871 ± 0.00032
- FLLAIVRGVWLA — higher, 0.339 ± 0.014
- FLPHLMCVFSFC — higher, 0.522 ± 0.0054
- FLVFRPPALFLR — lower, 0.268 ± 0.013
- FLVVCGLLSWVW — higher, 0.455 ± 0.015
- FLVVSSVGFPLL — higher, 0.729 ± 0.027
- FLWLCLLSLFFR — higher, 0.548 ± 0.017
- FLYFLLQFLCSG — higher, 0.597 ± 0.046
- FMCFVLPVFVLV — higher, 0.389 ± 0.0074
- FNFFFSSVFLLV — higher, 0.436 ± 0.051
- FPFFFLSILSAV — higher, 0.383 ± 0.0098
- FPFVYRSVLLFF — higher, 0.577 ± 0.011
- FPPRLIPLLARS — higher, 0.511 ± 0.0063
- FPSCYIWEVEVM — higher, 0.484 ± 0.038
- FPSLLFALFLFI — higher, 0.5271 ± 0.00065

Same assay, conditions: genetic background: doa10 deletion; temperature: 30 C

Point of comparison: FLCLLFYLSFFS, protein stability index 0.378 ± 0.021. Against it:
- CTLVFLFFDLCS — lower, 0.263 ± 0.014
- CVCVVVCWRCGF — lower, 0.276 ± 0.0091
- CVIVCVLVWGRA — lower, 0.152 ± 0.0045
- CVMWFLLSAYYL — lower, 0.285 ± 0.013
- CVPAPCGRASCR — higher, 0.63 ± 0.0079
- CYSLLFVSVILF — lower, 0.135 ± 0.01
- CYVFLCGSFVFV — lower, 0.317 ± 0.0068
- DFLSGRCIFFYV — lower, 0.243 ± 0.014
- DFRGVSVIRHQV — lower, 0.126 ± 0.0098
- DRTRLFLLLIIA — lower, 0.139 ± 0.0068
- DTHSRARAVLIA — lower, 0.2366 ± 0.002
- DYARAWRTEVVC — lower, 0.288 ± 0.015
- EFEIALTLIRSI — lower, 0.304 ± 0.009
- EFFILYFFLKVL — lower, 0.104 ± 0.01
- EFVACFRLLVHG — lower, 0.2322 ± 0.0015
- EGLCCGAYFLVF — higher, 0.558 ± 0.014
- EGLDVRILIQVI — lower, 0.1362 ± 0.0008
- EKTKRGLIQRVV — lower, 0.247 ± 0.016
- ESRRGILFIYIN — lower, 0.0808 ± 0.028
- ETCFSFVCSVQC — lower, 0.221 ± 0.012
- EVFLARKRSMVV — lower, 0.175 ± 0.019
- EWVWVVFSCVSW — lower, 0.2932 ± 0.0027
- FAIRMHCLIFRC — lower, 0.2 ± 0.0056
- FCSVFAHFLLCH — lower, 0.193 ± 0.005
- FFCCVLFSIVVY — lower, 0.103 ± 0.0065
- FFFSFSFPFLSF — higher, 0.55 ± 0.022
- FFFSLFFVLFFA — lower, 0.323 ± 0.028
- FFGRWWWSFLLA — lower, 0.262 ± 0.0098
- FFLDVMFLLFFF — higher, 0.44 ± 0.022
- FFLLFCASFLRC — within error, 0.3661 ± 0.0025
- FFLSFICVMLCG — lower, 0.165 ± 0.0019
- FFSGSVFMAVSL — higher, 0.467 ± 0.036
- FFVWGVFLGVSW — lower, 0.297 ± 0.015
- FGEDFCHLLWCC — lower, 0.347 ± 0.0051
- FGFSFLHLFIFF — higher, 0.443 ± 0.011
- FGGICFAVLLCR — lower, 0.258 ± 0.0034
- FHICTQLIFITC — lower, 0.114 ± 0.0037
- FILCGFSVVLIG — lower, 0.162 ± 0.019
- FILLIFLSLLSP — lower, 0.26 ± 0.0071
- FIPPRTYCLMIG — lower, 0.219 ± 0.0046
- FIRLFLVSFFIS — lower, 0.174 ± 0.013
- FLACYSSFLFVS — lower, 0.0703 ± 0.024
- FLCFFGGCFFLV — higher, 0.4162 ± 0.0038
- FLFWVLLVGCSF — lower, 0.206 ± 0.015
- FLGVFFYFLLCV — lower, 0.2529 ± 0.0012
- FLLAIVRGVWLA — lower, 0.154 ± 0.01
- FLPHLMCVFSFC — lower, 0.3324 ± 0.0015
- FLVFRPPALFLR — higher, 0.611 ± 0.01
- FLVVCGLLSWVW — lower, 0.232 ± 0.0053
- FLVVSSVGFPLL — higher, 0.618 ± 0.011
- FLWLCLLSLFFR — higher, 0.547 ± 0.01
- FLYFLLQFLCSG — higher, 0.406 ± 0.0045
- FMCFVLPVFVLV — lower, 0.196 ± 0.018
- FNFFFSSVFLLV — lower, 0.3 ± 0.022
- FPFFFLSILSAV — lower, 0.11 ± 0.0067
- FPFVYRSVLLFF — lower, 0.1059 ± 0.00044
- FPPRLIPLLARS — lower, 0.2401 ± 0.0016
- FPSCYIWEVEVM — lower, 0.268 ± 0.0021
- FPSLLFALFLFI — higher, 0.4401 ± 0.0013
